Data set [1] concerns the molecule itself. Nature of the data set: non-reducing SDS-PAGE with immunoblot; hCOMP (520 nM) incubated with ADAMTS4 WT (12 nM) for 2 h at 37 °C in TNC-B; non-reducing SDS-PAGE, immunoblot with anti-QQS77 neoepitope antibody.
Data set [2] deals with the molecule itself. In words: non-reducing SDS-PAGE; purified COMP, 4 μg/lane, 4–12 % SDS-PAGE under non-reducing conditions, Coomassie Brilliant Blue staining; under reducing conditions (5 % β-mercaptoethanol) a monomer band at ~100 kDa.

B1: fully cleaved N-terminal domain (NTD) of COMP ending at the QQS77 neoepitope (domain or fragment, human, UniProt P49747-1 21-77, looked up)
chain: QGQSPLGSDLGPQMLRELQETNAALQDVRELLRQQVREITFLKNTVMECDACGMQQS
notes: Cartilage Oligomeric Matrix Protein, human, N-terminal product of the cleavage at the S77-V78 bond; numbers count on NP_000086.2 (precursor); Made by proteolysis of m2; also called fully cleaved NTD pentamer; N-terminal cleavage fragment; source: hCOMP (520 nM, purified from Freestyle 293-F medium) digested with purified ADAMTS4 (12 nM), 2 h, 37 °C
The stoichiometry N is the number of molecules, sites or subunits per partner or assembly. For B1, the “stoichiometry N” value in data set [1] was determined as 5.

B2: Drosophila melanogaster S2-expressed human COMP (Cartilage Oligomeric Matrix Protein) (natural protein)
chain: not shown
modifications: N-linked glycans (shown by PNGase F)
notes: Cartilage Oligomeric Matrix Protein, human; the Drosophila BiP secretion signal is fused to Gly22 of COMP and cleaved off before secretion to give a native N terminus; numbers count on NP_000086.2 (precursor); on non-reducing SDS-PAGE a mixture of monomers to pentamers was seen; also called iCOMP; thrombospondin 5; source: Drosophila melanogaster Schneider 2 (S2) cells, purified from conditioned …
For the protein B2, the binding result in data set [2] is “binds”.

(Values after paper PMC12342048, “Cleavage of Cartilage Oligomeric Matrix Protein (COMP) by ADAMTS4 generates a neoepitope associated with osteoarthritis and other forms of degenerative joint disease” (Matrix biology : journal of the International Society for …, 2024).)
